Four molecules from US20240376207A1 (JIANGSU HENGRUI PHARMACEUTICALS, published 2024) can be followed below.

For assay [1], the target named is T1, human TIGIT recombinant protein (human, UniProt Q495A1 22-141, limits assumed).
T1 construct: construct not described; also called human TIGT recombinant protein
T1 sequence (looked up): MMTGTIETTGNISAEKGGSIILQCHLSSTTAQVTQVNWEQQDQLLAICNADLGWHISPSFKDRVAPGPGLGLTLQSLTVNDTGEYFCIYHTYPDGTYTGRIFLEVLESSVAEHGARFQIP
As to the kind of experiment: competition ELISA; human TIGIT, competitor human PVR. On the procedure: The h-PVRIG-mIgG2a Fc protein (at a concentration of 1 μg/mL) was coated on the 96-well microplate at 100 μL per well, and incubated overnight at 4° C. The plate was washed three times with wash buffer at 250 μL per well. For each wash, the plate was shaken for 10 s to ensure adequate cleaning. A blocking solution was added at 300 μL/well, and the plate was incubated at room temperature for 1 h. The plate was washed three times with wash buffer at 250 μL per well. For each wash, the plate was shaken for 10 s to ensure adequate cleaning. 50 μL of diluted test anti-PVRIG antibody and 50 μL of his-tagged ligand PVRL2 were added to each well, and the plate was incubated at 37° C. for 1 h. The plate was washed three times with wash buffer at 250 μL per well. The HRP-labeled anti-his-tagged secondary antibody (Genscrpit) diluted at 1:2000 was added at 100 μL per well. The plate was incubated at 37° C. for 1 h. The plate was washed three times with wash buffer at 250 μL per well. TMB was added at 100 μL/well, and the plate was incubated in the dark for 15 min. 0.16 M sulfuric acid was added at 50 μL/well. OD values at 450 nm were measured using a Thermo MμtLtiSkanFc microplate reader, and the IC₅₀ values of the anti-PVRIG antibodies blocking the binding of PVRIG to PVRL2 were calculated.
Similarly to Examples 4, 5 and 6, the binding of humanized anti-PVRIG/TIGIT bispecific antibodies to human and cynomolgus monkey TIGIT and blocking of binding of human TIGIT to ligand were detected, where PVRIG protein was replaced with TIGIT and PVRL2 was replaced with PVR.

Assay [2] deals with T2, human PVRIG antigen (AcroBiosystem, PVG-H52H4) (human, UniProt Q6DKI7 41-171, limits assumed).
T2 sequence (looked up): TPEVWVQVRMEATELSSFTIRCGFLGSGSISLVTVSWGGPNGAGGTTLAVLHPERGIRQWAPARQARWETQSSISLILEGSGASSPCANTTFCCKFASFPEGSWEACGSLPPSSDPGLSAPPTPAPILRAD
As to the kind of experiment: SPR (Biacore X100), antibody captured on Protein A chip, 1:1 fit. The source says: (§1) The affinity of the humanized bispecific antibodies for human PVRIG, cynomolgus monkey PVRIG and human TIGIT was detected using Biacore. Humanized bispecific antibodies were each captured on a Protein A biosensor chip (GE lifesciences, 29127557) of a Biacore instrument (Biacore X100, GE), and then human PVRIG antigen (AcroBiosystem, PVG-H52H4), cynomolgus monkey PVRIG antigen (SEQ ID NO: 1), or human TIGIT antigen (AcroBiosystem, TIT-H52H3) at a series of concentration gradients each flowed over the chip surface. The reaction signals were detected in real time using a Biacore instrument (Biacore X100, GE) to obtain association and dissociation curves. The data obtained from the experiment were fitted using the (1:1) Binding model with the BiacoreX100 evaluation software 2.0 GE to obtain affinity values (see Table 31).

Assay [3] has as its target T3, human TIGIT antigen (AcroBiosystem, TIT-H52H3) (human, UniProt Q495A1 22-141).
T3 sequence (looked up): T1 sequence (looked up)
The assay is described as above.
Source text: as §1

Assay [4] deals with T4, his-tagged cynomolgus monkey PVRIG (cyno-PVRIG-his) recombinant protein (cynomolgus monkey).
T4 construct: expressed in HEK293, purified by Ni-NTA; also called Monkey PVRIG-his; cynomolgus monkey PVRIG recombinant protein
T4 chain: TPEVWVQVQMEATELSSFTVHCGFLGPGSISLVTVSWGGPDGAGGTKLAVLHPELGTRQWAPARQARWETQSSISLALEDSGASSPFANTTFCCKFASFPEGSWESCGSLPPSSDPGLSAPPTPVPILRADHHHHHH
The description is as above.
Source text: as §1

The target in assay [5] is T5, human PVRIG expressed on cells (human, UniProt Q6DKI7 41-326).
T5 sequence (looked up): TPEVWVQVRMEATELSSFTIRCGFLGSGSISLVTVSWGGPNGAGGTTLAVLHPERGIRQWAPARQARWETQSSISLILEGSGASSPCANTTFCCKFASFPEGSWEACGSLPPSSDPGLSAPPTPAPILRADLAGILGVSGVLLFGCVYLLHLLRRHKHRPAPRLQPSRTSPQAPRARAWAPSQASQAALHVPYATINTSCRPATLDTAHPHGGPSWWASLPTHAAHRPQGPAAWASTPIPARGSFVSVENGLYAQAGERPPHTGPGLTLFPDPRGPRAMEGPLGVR
As to the kind of experiment: cell-based or functional assay.

The target in assay [6] is T6, his-tagged human PVRIG (h-PVRIG-his) recombinant protein (human, UniProt Q6DKI7 41-171, limits assumed).
T6 construct: bought from Acrobiosystems; also called Human PVRIG-his; human PVRIG recombinant protein; not shown: his tag
T6 sequence (looked up): T2 sequence (looked up)
Nature of the assay: ELISA, coated antigen.

Assay [7] has as its target T5, human PVRIG expressed on cells. Nature of the assay: FACS, cells overexpressing target.

B1: humanized anti-PVRIG/TIGIT bispecific antibody 1708-20H5 (bispecific antibody, human IgG4 S228P, kappa)
heavy: not shown
light: DIQMTQSPSSLSASVGDRVTITCRASENIYSYLAWYQQKPGKSPKLLIYNARTLAEGVPSRFSGSGSGTDFTLTISSLQPEDFATYYCQYHSGSPLPFGGGTKVEIKRTVAAPSVFIFPPSDEQLKSGTASVVCLLNNFYPREAKVQWKVDNALQSGNSQESVTEQDSKDSTYSLSSTLTLSKADYEKHKVYACEVTHQGLSSPVTKSFNRGEC
Take B1: the IC50 in assay [1] is 1.02 nM. Moreover, in assay [2], the Kd was determined as 0.00782 nM, the koff was found to be 0.00013 s⁻¹ and the on-rate (kon) came to 1.67e+07 M⁻¹ s⁻¹. Also, in assay [3], binding was put at a Kd of 0.0763 nM, the dissociation rate constant (koff) came out at 0.00015 s⁻¹ and the kon stood at 1.97e+06 M⁻¹ s⁻¹. In addition, in assay [4], the Kd worked out at 7.05 nM, the off-rate (koff) came out at 0.181 s⁻¹ and the on-rate (kon) was 2.56e+07 M⁻¹ s⁻¹.

B2: humanized anti-PVRIG/TIGIT bispecific antibody 1708-30H2 (bispecific antibody, human IgG4 S228P, kappa)
heavy: not shown
light: B1 light
B2: the IC50 in assay [1] turned out to be 1.01 nM. In assay [2], this molecule yielded a Kd of 0.706 nM, a koff of 0.00912 s⁻¹ and a kon of 1.29e+07 M⁻¹ s⁻¹. Moreover, in assay [3], the Kd is 0.0512 nM, the koff was found to be 0.000158 s⁻¹ and the kon was found to be 3.08e+06 M⁻¹ s⁻¹. In assay [4], the Kd came to 31.9 nM, the koff was determined as 0.581 s⁻¹ and the kon turned out to be 1.82e+07 M⁻¹ s⁻¹.

B3: anti-PVRIG antibody 30 (antibody, human IgG4 S228P, F234A L235A, V domains shown)
VH: HVQLVESGGGSVQAGGSLRLSCEASGYSYSGDCMGWFRRAPGKERDEGVATIDNAGRIKYADSVKGRFTISHGNGKYILYLQMNSLKPEDTDMYYCAAGWTFGGNCSPADWGQGTQVTVSS
notes: no light chain
As to B3, in assay [5], the “NK92 killing of K562, killing activity (%), 4 nM antibody” value turned out to be 10.4%; the “NK92 killing of K562, killing activity (%), 20 nM antibody” value was found to be 11.9%; the “NK92 killing of K562, killing activity (%), 100 nM antibody” value is 13.3%.

B4: positive antibody Tab5 (antibody, human IgG4 S228P, kappa, F234A L235A, V domains shown)
VH: EVQLVESGGGVVKPGGSLRLSCAASGFTFGTSSMNWVRQAPGKGLEWVAVISFDGTEIHYADSVKGRFTISRDNSKSTVFLQMNSLRPDDTALYYCAKGSGNIYFYSGMDVWGQGTTVTVSS
VL: DIQMTQSPSTLSASVGDRVTITCRAGQSISGWLAWFQQKPGKAPNLLIYETSTLESGVPSRFSGSGSGTEYTLTISSLQPDDFATYYCQQYYSYPLTFGQGTKVEIKR
notes: Variable regions of CPA.7.021 (WO2016134333A1) on human IgG4 (S228P/F234A/L235A/K447A) and human kappa constant regions
As to B4, the concentration giving a half-maximal response (EC50) in assay [6] was determined as 1.86 nM. For the same molecule, in assay [5], the “NK92 killing of K562, killing activity (%), 4 nM antibody” value was determined as 5.9%; the “NK92 killing of K562, killing activity (%), 20 nM antibody” value was found to be 7.9%; the “NK92 killing of K562, killing activity (%), 100 nM antibody” value came out at 10%. In assay [7], this molecule had an EC50 of 3.15 nM.
